Molecular target: Villin-1 (human (endogenous in HepG2)) (UniProt P09327)
Test: co-IP

UniProt P09327, sequence (P09327 whole entry): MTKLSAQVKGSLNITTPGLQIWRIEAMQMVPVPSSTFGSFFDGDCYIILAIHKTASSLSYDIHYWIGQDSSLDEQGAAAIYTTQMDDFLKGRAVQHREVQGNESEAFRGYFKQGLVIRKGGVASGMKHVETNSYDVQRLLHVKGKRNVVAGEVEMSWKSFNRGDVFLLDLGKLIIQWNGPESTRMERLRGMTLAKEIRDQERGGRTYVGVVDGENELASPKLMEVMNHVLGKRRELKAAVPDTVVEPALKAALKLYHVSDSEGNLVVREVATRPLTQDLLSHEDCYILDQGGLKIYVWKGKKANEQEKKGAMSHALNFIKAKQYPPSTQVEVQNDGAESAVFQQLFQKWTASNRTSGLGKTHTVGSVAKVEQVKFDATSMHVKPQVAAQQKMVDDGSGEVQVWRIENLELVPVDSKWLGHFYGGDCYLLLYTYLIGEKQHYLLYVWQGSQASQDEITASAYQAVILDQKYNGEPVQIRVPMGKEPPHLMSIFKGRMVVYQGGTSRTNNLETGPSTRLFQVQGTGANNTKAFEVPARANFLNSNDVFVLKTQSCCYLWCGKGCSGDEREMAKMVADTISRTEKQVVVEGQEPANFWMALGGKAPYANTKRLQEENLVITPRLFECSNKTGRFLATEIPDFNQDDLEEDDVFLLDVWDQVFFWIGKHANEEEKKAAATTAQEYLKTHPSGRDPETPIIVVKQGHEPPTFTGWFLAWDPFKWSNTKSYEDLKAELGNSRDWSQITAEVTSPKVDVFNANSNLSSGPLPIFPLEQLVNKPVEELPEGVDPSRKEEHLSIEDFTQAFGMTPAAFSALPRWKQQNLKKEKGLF

fold change of co-precipitated actin after fusion against control: 28.7 fold
Substance: ß-actin (actin, cytoplasmic 1, ACTB) (from UniProt P60709 1-375) (natural protein)

— PMC5739296
